“And” between values parts separate entries of the source, which are not always exact repeats. Equal entries are not always repeated. Where two headings read alike, the source gives them in different places.

Two molecules from patent US20180362632A1 (published 2018) can be followed below.

Test [1] concerns the target T1, recombinant human GM-CSF protein (human, UniProt P04141 18-144). Kind of test: ELISA.
Test [2] addresses T1, recombinant human GM-CSF protein. Kind of test: ELISA. The source holds these as a separate data set. (In general: In an ELISA, binding on a coated surface is turned into a signal by an enzyme label.)

T1 sequence (P04141 18-144): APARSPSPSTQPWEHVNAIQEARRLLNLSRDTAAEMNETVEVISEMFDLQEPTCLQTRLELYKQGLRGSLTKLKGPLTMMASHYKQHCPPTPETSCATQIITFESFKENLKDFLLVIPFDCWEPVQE

B1: Hu50C5-20 (antibody, V domains shown)
VH: EVQLVQSGAEVKKPGSSVKVSCKASGYIFSPYSIHWVRQAPGQGLEWIGYINPSTGYIEYNQHFKDRTTLTADKSTSTAYMELRSLRSEDTAVYYCARGGDYEGYFDYWGQGTTVTVSS
VL: DIQMTQSPSSLSASVGDRVTITCRLNENIYSFLAWYQQKPGKSPKLLVYNAETLAEDVPSRFSGSGSGTQFTLTISSLQPEDFATYYCQQHYGTPYTFGGGTKVEIK
One may read the EC50 as the midpoint of the concentration-response curve. On to B1, for which the half-maximal effective concentration (EC50) in test [1] was found to be 0.305 nM.

B2: 50C5 chimera (antibody, V domains shown)
VH: QVQLQQSAAELVRPGASVKMSCKASGYIFTPYSIHWIKQRPGQGLEWIGYINPSTGYIEYNQHFKDRTTLTADKSSSTAYMQLRSLTSEDSAVYYCARGGDYEGYFDYWGQGTTLTVSS
VL: DIQMTQSPDSLSASVGETVTITCRLNENIYSFLAWYQQRQGKSPQLLVYNAETLAEDVPSRFSGSGSGTQFSLKISSLQTDDFGTYYCQQHYGTPYTFGGGTNLEIE
With B2, the concentration for a half-maximal effect (EC50) in test [2] is 0.464 nM and 0.483 nM; in test [1], 0.547 nM.
